Experimental data: patent US20220064300A1
pKd: −log10 of the molar value.

Key:
[1] = molecular target: Murine FcγRIIB extracellular domain (mouse) (UniProt P08101); assay: SPR, dissociation constant from binding at equilibrium on immobilized murine FcγRIIB extracellular domain, 37 °C
[2] = molecular target: Murine FcγRIIB extracellular domain (mouse) (UniProt P08101); assay: SPR, binding at equilibrium, antibody injected at 37 °C over murine FcγRIIB extracellular domain amine-coupled to a CM5 chip, reference channel mouse CD200

Chain of UniProt P08101 (P08101 30-210): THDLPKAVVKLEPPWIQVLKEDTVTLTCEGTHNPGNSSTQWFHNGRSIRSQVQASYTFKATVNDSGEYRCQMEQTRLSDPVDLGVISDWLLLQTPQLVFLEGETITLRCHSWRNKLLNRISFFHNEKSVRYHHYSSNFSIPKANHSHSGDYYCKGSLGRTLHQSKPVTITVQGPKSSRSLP

pKd [1]	pKd [2]	Substance
5.07	5.07	chimeric Nivolumab in an extended form containing the 50-residue extension (antibody)
5.97	5.97	JJ316+50 (JJ316 extended in the hinge with a 50 amino acid insertion from murine CD43) (antibody)
5.52	5.52	JJ316 (anti-rat CD28 antibody, superagonistic; BD Biosciences cat #554992)
